Test results taken from PMC6283856 (2018).

B1: ubiquitin-specific peptidase 17 (USP17), wild type [not stated] / TNFR-associated factor 3 (TRAF3) [not stated] (parent complex)
chain 1: MEDDSLYLGGEWQFNHFSKLTSSRPDAAFAEIQRTSLPEKSPLSSEARVDLCDDLAPVARQLAPRKKLPLSSRRPAAVGAGLQNMGNTCYENASLQCLTYTPPLANYMLSREHSQTCQRPKCCMLCTMQAHITWALHSPGHVIQPSQALAAGFHRGKQEDAHEFLMFTVDAMKKACLPGHKQVDHHSKDTTLIHQIFGGCWRSQIKCLHCHGISDTFDPYLDIALDIQAAQSVKQALEQLVKPEELNGENAYHCGLCLQRAPASKTLTLHTSAKVLILVLKRFSDVTGNKLAKNVQYPECLDMQPYMSQQNTGPLVYVLYAVLVHAGWSCHDGHYFSYVKAQEGQWYKMDDAKVTACSITSVLSQQAYVLFYIQKSEWERHSESVSRGREPRALGAEDTDRRATQGELKRDHPCLQAPELDERLVERATQESTLDHWKFPQEQNKTKPEFNVRKVEGTLPPNVLVIHQSKYKCGMKNHHPEQQSSLLNLSSTTRTDQESVNTGTLASLQGRTRRSKGKNKHSKRALLVCQ
chain 2: MESSKKMDSPGALQTNPPLKLHTDRSAGTPVFVPEQGGYKEKFVKTVEDKYKCEKCHLVLCSPKQTECGHRFCESCMAALLSSSSPKCTACQESIVKDKVFKDNCCKREILALQIYCRNESRGCAEQLMLGHLLVHLKNDCHFEELPCVRPDCKEKVLRKDLRDHVEKACKYREATCSHCKSQVPMIALQKHEDTDCPCVVVSCPHKCSVQTLLRSELSAHLSECVNAPSTCSFKRYGCVFQGTNQQIKAHEASSAVQHVNLLKEWSNSLEKKVSLLQNESVEKNKSIQSLHNQICSFEIEIERQKEMLRNNESKILHLQRVIDSQAEKLKELDKEIRPFRQNWEEADSMKSSVESLQNRVTELESVDKSAGQVARNTGLLESQLSRHDQMLSVHDIRLADMDLRFQVLETASYNGVLIWKIRDYKRRKQEAVMGKTLSLYSQPFYTGYFGYKMCARVYLNGDGMGKGTHLSLFFVIMRGEYDALLPWPFKQKVTLMLMDQGSSRRHLGDAFKPDPNSSSFKKPTGEMNIASGCPVFVAQTVLENGTYIKDDTIFIKVIVDTSDLPDP
B2: ubiquitin-specific peptidase 17 (USP17), wild type [not stated] / TNFR-associated factor 2 (TRAF2) [not stated] (parent complex)
chain 1: B1 chain 1
chain 2: MAAASVTPPGSLELLQPGFSKTLLGTKLEAKYLCSACRNVLRRPFQAQCGHRYCSFCLASILSSGPQNCAACVHEGIYEEGISILESSSAFPDNAARREVESLPAVCPSDGCTWKGTLKEYESCHEGRCPLMLTECPACKGLVRLGEKERHLEHECPERSLSCRHCRAPCCGADVKAHHEVCPKFPLTCDGCGKKKIPREKFQDHVKTCGKCRVPCRFHAIGCLETVEGEKQQEHEVQWLREHLAMLLSSVLEAKPLLGDQSHAGSELLQRCESLEKKTATFENIVCVLNREVERVAMTAEACSRQHRLDQDKIEALSSKVQQLERSIGLKDLAMADLEQKVLEMEASTYDGVFIWKISDFARKRQEAVAGRIPAIFSPAFYTSRYGYKMCLRIYLNGDGTGRGTHLSLFFVVMKGPNDALLRWPFNQKVTLMLLDQNNREHVIDAFRPDVTSSSFQRPVNDMNIASGCPLFCPVSKMEAKNSYVRDDAIFIKAIVDLTGL

Variants of: B1
Assay: co-immunoprecipitation (IP: Myc, IB: Flag) with band quantification; coexpressed in HEK293 cells; parent: 100; read off a plot

Row | percent of parent | Variant
1 | ~68% | chain 1 MEDDSLYLGGEWQFNHFSKLTSSRPDAAFAEIQRTSLPEKSPLSSEARVDLCDDLAPVARQLAPRKKLPLSSRRPAAVGAGLQNMGNTCYENASLQCLTYTPPLANYMLSREHSQTCQRPKCCMLCTMQAHITWALHSPGHVIQPSQALAAGFHRGKQEDAHEFLMFTVDAMKKACLPGHKQVDHHSKDTTLIHQIFGGCWRSQIKCLHCHGISDTFDPYLDIALDIQAAQSVKQALEQLVKPEELNGENAYHCGLCLQRAPASKTLTLHTSAKVLILVLKRFSDVTGNKLAKNVQYPECLDMQPYMSQQNTGPLVYVLYAVLVHAGWSCHDGHYFSYVKAQEGQWYKMDDAKVTACSITSVLSQQAYVLFYIQKSEWERHSESVSRGREPRALGAEDTDRRATQGELKRDHPCLQAPELDERLVERATQESTLDHWKFPQEQNKTKPEFNVRKVEGTLPPNVLVIHQSKYKCGMKNHHLEQQSSLLNLSSTTRTDQESVNTGTLASLQGRTRRSKGKNKHSKRALLVCQ [chain 1 P480L]
2 | ~38% | chain 1 MEDDSLYLGGEWQFNHFSKLTSSRPDAAFAEIQRTSLPEKSPLSSEARVDLCDDLAPVARQLAPRKKLPLSSRRPAAVGAGLQNMGNTCYENASLQCLTYTPPLANYMLSREHSQTCQRPKCCMLCTMQAHITWALHSPGHVIQPSQALAAGFHRGKQEDAHEFLMFTVDAMKKACLPGHKQVDHHSKDTTLIHQIFGGCWRSQIKCLHCHGISDTFDPYLDIALDIQAAQSVKQALEQLVKPEELNGENAYHCGLCLQRAPASKTLTLHTSAKVLILVLKRFSDVTGNKLAKNVQYPECLDMQPYMSQQNTGPLVYVLYAVLVHAGWSCHDGHYFSYVKAQEGQWYKMDDAKVTACSITSVLSQQAYVLFYIQKSEWERHSESVSRGREPRALGAEDTDRRATQGELKRDHPCLQAPELDERLVERATQESTLDHWKFPQEQNKTKPEFNVRKVEGTLPPNVLVIHQSKYKCGMKNHHPEQQLSLLNLSSTTRTDQESVNTGTLASLQGRTRRSKGKNKHSKRALLVCQ [chain 1 S484L]
3 | ~30% | chain 1 MEDDSLYLGGEWQFNHFSKLTSSRPDAAFAEIQRTSLPEKSPLSSEARVDLCDDLAPVARQLAPRKKLPLSSRRPAAVGAGLQNMGNTCYENASLQCLTYTPPLANYMLSREHSQTCQRPKCCMLCTMQAHITWALHSPGHVIQPSQALAAGFHRGKQEDAHEFLMFTVDAMKKACLPGHKQVDHHSKDTTLIHQIFGGCWRSQIKCLHCHGISDTFDPYLDIALDIQAAQSVKQALEQLVKPEELNGENAYHCGLCLQRAPASKTLTLHTSAKVLILVLKRFSDVTGNKLAKNVQYPECLDMQPYMSQQNTGPLVYVLYAVLVHAGWSCHDGHYFSYVKAQEGQWYKMDDAKVTACSITSVLSQQAYVLFYIQKSEWERHSESVSRGREPRALGAEDTDRRATQGELKRDHPCLQAPELDERLVERATQESTLDHWKFPQEQNKTKPEFNVRKVEGTLPPNVLVIHQSKYKCGMKNHHPERQSSLLNLSSTTRTDQESVNTGTLASLQGRTRRSKGKNKHSKRALLVCQ [chain 1 Q482R]

Variants of: B2
Assay: as above

Row | Variant | percent of parent
4 | chain 1 MEDDSLYLGGEWQFNHFSKLTSSRPDAAFAEIQRTSLPEKSPLSSEARVDLCDDLAPVARQLAPRKKLPLSSRRPAAVGAGLQNMGNTCYENASLQCLTYTPPLANYMLSREHSQTCQRPKCCMLCTMQAHITWALHSPGHVIQPSQALAAGFHRGKQEDAHEFLMFTVDAMKKACLPGHKQVDHHSKDTTLIHQIFGGCWRSQIKCLHCHGISDTFDPYLDIALDIQAAQSVKQALEQLVKPEELNGENAYHCGLCLQRAPASKTLTLHTSAKVLILVLKRFSDVTGNKLAKNVQYPECLDMQPYMSQQNTGPLVYVLYAVLVHAGWSCHDGHYFSYVKAQEGQWYKMDDAKVTACSITSVLSQQAYVLFYIQKSEWERHSESVSRGREPRALGAEDTDRRATQGELKRDHPCLQAPELDERLVERATAESTLDHWKFPQEQNKTKPEFNVRKVEGTLPPNVLVIHQSKYKCGMKNHHPEQQSSLLNLSSTTRTDQESVNTGTLASLQGRTRRSKGKNKHSKRALLVCQ [chain 1 Q430A] | ~33%
5 | chain 1 MEDDSLYLGGEWQFNHFSKLTSSRPDAAFAEIQRTSLPEKSPLSSEARVDLCDDLAPVARQLAPRKKLPLSSRRPAAVGAGLQNMGNTCYENASLQCLTYTPPLANYMLSREHSQTCQRPKCCMLCTMQAHITWALHSPGHVIQPSQALAAGFHRGKQEDAHEFLMFTVDAMKKACLPGHKQVDHHSKDTTLIHQIFGGCWRSQIKCLHCHGISDTFDPYLDIALDIQAAQSVKQALEQLVKPEELNGENAYHCGLCLQRAPASKTLTLHTSAKVLILVLKRFSDVTGNKLAKNVQYPECLDMQPYMSQQNTGPLVYVLYAVLVHAGWSCHDGHYFSYVKAQEGQWYKMDDAKVTACSITSVLSQQAYVLFYIQKSEWERHSESVSRGREPRALGAEDTDRRATQGELKRDHPCLQAPELDERLVERVTQESTLDHWKFPQEQNKTKPEFNVRKVEGTLPPNVLVIHQSKYKCGMKNHHPEQQSSLLNLSSTTRTDQESVNTGTLASLQGRTRRSKGKNKHSKRALLVCQ [chain 1 A428V] | ~79%

Now from value to variant:

Row | percent of parent | Variant
6 | ~68% | chain 1 MEDDSLYLGGEWQFNHFSKLTSSRPDAAFAEIQRTSLPEKSPLSSEARVDLCDDLAPVARQLAPRKKLPLSSRRPAAVGAGLQNMGNTCYENASLQCLTYTPPLANYMLSREHSQTCQRPKCCMLCTMQAHITWALHSPGHVIQPSQALAAGFHRGKQEDAHEFLMFTVDAMKKACLPGHKQVDHHSKDTTLIHQIFGGCWRSQIKCLHCHGISDTFDPYLDIALDIQAAQSVKQALEQLVKPEELNGENAYHCGLCLQRAPASKTLTLHTSAKVLILVLKRFSDVTGNKLAKNVQYPECLDMQPYMSQQNTGPLVYVLYAVLVHAGWSCHDGHYFSYVKAQEGQWYKMDDAKVTACSITSVLSQQAYVLFYIQKSEWERHSESVSRGREPRALGAEDTDRRATQGELKRDHPCLQAPELDERLVERATQESTLDHWKFPQEQNKTKPEFNVRKVEGTLPPNVLVIHQSKYKCGMKNHHLEQQSSLLNLSSTTRTDQESVNTGTLASLQGRTRRSKGKNKHSKRALLVCQ [chain 1 P480L]
7 | ~37% | chain 1 MEDDSLYLGGEWQFNHFSKLTSSRPDAAFAEIQRTSLPEKSPLSSEARVDLCDDLAPVARQLAPRKKLPLSSRRPAAVGAGLQNMGNTCYENASLQCLTYTPPLANYMLSREHSQTCQRPKCCMLCTMQAHITWALHSPGHVIQPSQALAAGFHRGKQEDAHEFLMFTVDAMKKACLPGHKQVDHHSKDTTLIHQIFGGCWRSQIKCLHCHGISDTFDPYLDIALDIQAAQSVKQALEQLVKPEELNGENAYHCGLCLQRAPASKTLTLHTSAKVLILVLKRFSDVTGNKLAKNVQYPECLDMQPYMSQQNTGPLVYVLYAVLVHAGWSCHDGHYFSYVKAQEGQWYKMDDAKVTACSITSVLSQQAYVLFYIQKSEWERHSESVSRGREPRALGAEDTDRRATQGELKRDHPCLQAPELDERLVERATQESTLDHWKFPQEQNKTKPEFNVRKVEGTLPPNVLVIHQSKYKCGMKNHHPERQSSLLNLSSTTRTDQESVNTGTLASLQGRTRRSKGKNKHSKRALLVCQ [chain 1 Q482R]
8 | ~29% | chain 1 MEDDSLYLGGEWQFNHFSKLTSSRPDAAFAEIQRTSLPEKSPLSSEARVDLCDDLAPVARQLAPRKKLPLSSRRPAAVGAGLQNMGNTCYENASLQCLTYTPPLANYMLSREHSQTCQRPKCCMLCTMQAHITWALHSPGHVIQPSQALAAGFHRGKQEDAHEFLMFTVDAMKKACLPGHKQVDHHSKDTTLIHQIFGGCWRSQIKCLHCHGISDTFDPYLDIALDIQAAQSVKQALEQLVKPEELNGENAYHCGLCLQRAPASKTLTLHTSAKVLILVLKRFSDVTGNKLAKNVQYPECLDMQPYMSQQNTGPLVYVLYAVLVHAGWSCHDGHYFSYVKAQEGQWYKMDDAKVTACSITSVLSQQAYVLFYIQKSEWERHSESVSRGREPRALGAEDTDRRATQGELKRDHPCLQAPELDERLVERATQASTLDHWKFPQEQNKTKPEFNVRKVEGTLPPNVLVIHQSKYKCGMKNHHPEQQSSLLNLSSTTRTDQESVNTGTLASLQGRTRRSKGKNKHSKRALLVCQ [chain 1 E431A]
9 | ~40% | chain 1 MEDDSLYLGGEWQFNHFSKLTSSRPDAAFAEIQRTSLPEKSPLSSEARVDLCDDLAPVARQLAPRKKLPLSSRRPAAVGAGLQNMGNTCYENASLQCLTYTPPLANYMLSREHSQTCQRPKCCMLCTMQAHITWALHSPGHVIQPSQALAAGFHRGKQEDAHEFLMFTVDAMKKACLPGHKQVDHHSKDTTLIHQIFGGCWRSQIKCLHCHGISDTFDPYLDIALDIQAAQSVKQALEQLVKPEELNGENAYHCGLCLQRAPASKTLTLHTSAKVLILVLKRFSDVTGNKLAKNVQYPECLDMQPYMSQQNTGPLVYVLYAVLVHAGWSCHDGHYFSYVKAQEGQWYKMDDAKVTACSITSVLSQQAYVLFYIQKSEWERHSESVSRGREPRALGAEDTDRRATQGELKRDHPCLQAPELDERLVERATQESTLDHWKFPQEQNKTKPEFNVRKVEGTLPPNVLVIHQSKYKCGMKNHHPEQQLSLLNLSSTTRTDQESVNTGTLASLQGRTRRSKGKNKHSKRALLVCQ [chain 1 S484L]
